# Assay results taken from patent US20260117202A1.
# Experiments:
# Assay in all cases: sandwich ELISA, AM14 coated, supernatant 1:10
# FHS-46 (RSV strain A2) = FHS-46 (RSV strain A2) (UniProt P03420)
# FHS-71 (RSV strain A2) = FHS-71 (RSV strain A2) (UniProt P03420)
# FHS-32 (RSV strain A2) = FHS-32 (RSV strain A2) (UniProt P03420)
# FHS-78 (RSV strain A2) = FHS-78 (RSV strain A2) (UniProt P03420)
# FHS-17 (RSV strain A2) = FHS-17 (RSV strain A2) (UniProt P03420)
# FHS-70 (RSV strain A2) = FHS-70 (RSV strain A2) (UniProt P03420)
# FHS-58 (RSV strain A2) = FHS-58 (RSV strain A2) (UniProt P03420)
# FHS-28 (RSV strain A2) = FHS-28 (RSV strain A2) (UniProt P03420)
# FHM-20 (RSV strain A2) = FHM-20 (RSV strain A2) (UniProt P03420)
# FHS-42 (RSV strain A2) = FHS-42 (RSV strain A2) (UniProt P03420)
# FHS-75 (RSV strain A2) = FHS-75 (RSV strain A2) (UniProt P03420)
# FHS-53 (RSV strain A2) = FHS-53 (RSV strain A2) (UniProt P03420)
# FHS-1 (RSV strain A2) = FHS-1 (RSV strain A2) (UniProt P03420)
# FHS-92 (RSV strain A2) = FHS-92 (RSV strain A2) (UniProt P03420)
# FHM-3 (RSV strain A2) = FHM-3 (RSV strain A2) (UniProt P03420)
# FHS-60 (RSV strain A2) = FHS-60 (RSV strain A2) (UniProt P03420)
# FHM-14 (RSV strain A2) = FHM-14 (RSV strain A2) (UniProt P03420)
# FHS-24 (RSV strain A2) = FHS-24 (RSV strain A2) (UniProt P03420)
# FHS-85 (RSV strain A2) = FHS-85 (RSV strain A2) (UniProt P03420)
# FHM-8 (RSV strain A2) = FHM-8 (RSV strain A2) (UniProt P03420)
# FHS-18 (RSV strain A2) = FHS-18 (RSV strain A2) (UniProt P03420)
# FHS-72 (RSV strain A2) = FHS-72 (RSV strain A2) (UniProt P03420)
# FHS-94 (RSV strain A2) = FHS-94 (RSV strain A2) (UniProt P03420)
# FHS-37 (RSV strain A2) = FHS-37 (RSV strain A2) (UniProt P03420)
# FHS-29 (RSV strain A2) = FHS-29 (RSV strain A2) (UniProt P03420)
# FHS-40 (RSV strain A2) = FHS-40 (RSV strain A2) (UniProt P03420)
# FHM-5 (RSV strain A2) = FHM-5 (RSV strain A2) (UniProt P03420)
# FHM-15 (RSV strain A2) = FHM-15 (RSV strain A2) (UniProt P03420)
# FHS-10 (RSV strain A2) = FHS-10 (RSV strain A2) (UniProt P03420)
# FHS-98 (RSV strain A2) = FHS-98 (RSV strain A2) (UniProt P03420)
# FHS-79 (RSV strain A2) = FHS-79 (RSV strain A2) (UniProt P03420)
# FHS-91 (RSV strain A2) = FHS-91 (RSV strain A2) (UniProt P03420)
# FHS-6 (RSV strain A2) = FHS-6 (RSV strain A2) (UniProt P03420)
# FHS-56 (RSV strain A2) = FHS-56 (RSV strain A2) (UniProt P03420)
# FHS-4 (RSV strain A2) = FHS-4 (RSV strain A2) (UniProt P03420)
# FHS-73 (RSV strain A2) = FHS-73 (RSV strain A2) (UniProt P03420)
# FHS-15 (RSV strain A2) = FHS-15 (RSV strain A2) (UniProt P03420)
# FHM-25 (RSV strain A2) = FHM-25 (RSV strain A2) (UniProt P03420)
# FHS-3 (RSV strain A2) = FHS-3 (RSV strain A2) (UniProt P03420)
# FHS-80 (RSV strain A2) = FHS-80 (RSV strain A2) (UniProt P03420)
# FHS-66 (RSV strain A2) = FHS-66 (RSV strain A2) (UniProt P03420)
substance,measurement,setting,value
AM14 monoclonal antibody,OD value,FHS-46 (RSV strain A2),2.41 OD
same,OD value,FHS-71 (RSV strain A2),0.012 OD
same,OD value,FHS-32 (RSV strain A2),0.008 OD
same,OD value,FHS-78 (RSV strain A2),1.24 OD
same,OD value,FHS-17 (RSV strain A2),0.009 OD
same,OD value,FHS-70 (RSV strain A2),0.007 OD
same,OD value,FHS-58 (RSV strain A2),0.011 OD
same,OD value,FHS-28 (RSV strain A2),0.008 OD
same,OD value,FHM-20 (RSV strain A2),0.607 OD
same,OD value,FHS-42 (RSV strain A2),0.01 OD
same,OD value,FHS-75 (RSV strain A2),0.028 OD
same,OD value,FHS-53 (RSV strain A2),0.008 OD
same,OD value,FHS-1 (RSV strain A2),2.03 OD
same,OD value,FHS-92 (RSV strain A2),0.012 OD
same,OD value,FHM-3 (RSV strain A2),0.07 OD
same,OD value,FHS-60 (RSV strain A2),0.007 OD
same,OD value,FHM-14 (RSV strain A2),0.008 OD
same,OD value,FHS-24 (RSV strain A2),0.01 OD
same,OD value,FHS-85 (RSV strain A2),0.008 OD
same,OD value,FHM-8 (RSV strain A2),0.016 OD
same,OD value,FHS-18 (RSV strain A2),0.009 OD
same,OD value,FHS-72 (RSV strain A2),0.007 OD
same,OD value,FHS-94 (RSV strain A2),0.009 OD
same,OD value,FHS-37 (RSV strain A2),0.007 OD
same,OD value,FHS-29 (RSV strain A2),0.007 OD
same,OD value,FHS-40 (RSV strain A2),0.009 OD
same,OD value,FHM-5 (RSV strain A2),1.96 OD
same,OD value,FHM-15 (RSV strain A2),1.5 OD
same,OD value,FHS-10 (RSV strain A2),0.069 OD
same,OD value,FHS-98 (RSV strain A2),0.007 OD
same,OD value,FHS-79 (RSV strain A2),0.008 OD
same,OD value,FHS-91 (RSV strain A2),0.008 OD
same,OD value,FHS-6 (RSV strain A2),2.65 OD
same,OD value,FHS-56 (RSV strain A2),0.009 OD
same,OD value,FHS-4 (RSV strain A2),2.26 OD
same,OD value,FHS-73 (RSV strain A2),0.016 OD
same,OD value,FHS-15 (RSV strain A2),0.091 OD
same,OD value,FHM-25 (RSV strain A2),2.42 OD
same,OD value,FHS-3 (RSV strain A2),0.076 OD
same,OD value,FHS-80 (RSV strain A2),0.005 OD
same,OD value,FHS-66 (RSV strain A2),1.75 OD
